# Test: Radiochemical purity before and after autoclave sterilization
# Type: physicochemical
# Details: DTPA-hexa-lactoside autoclaved in a lyophilized vial, then 111In radiolabel
# Method: To test whether ^111In radiolabel of DTPA-hexa-lactoside was affected by autoclave sterilization, DTPA-hexa-lactoside was put into a lyophilized vial to set in an autoclave for sterilizing. After that, ^111In radiolabel proceeded. […] The comparison of radiochemical purity between before and after autoclave sterilization was illustrated in FIG. 2. First, a developing solvent of radio-ITLC of 10 mM sodium citrate buffer (about pH 5) were prepared as follows: 0.13 g citric acid monohydrate and 0.11 g trisodium citrate dehydrate were weighed precisely to dissolve in 100 ml water for injection. Then 10 ml of the solution were added in the developing tank as a developing solvent. The position away from the bottom of a TLC-SG film about 2 cm was marked with a pencil as the origin while the position away from the bottom about 9 cm was marked as the end. A few samples were taken by a micropipette to drop at the origin. Then, the TLC-SG film was put in a developing tank containing a buffer (about pH 5) of 10 mM sodium citrate to develop. The film were taken out to dry in the fume cabinet while the liquid level reached the end. […] The calculating formula is as follows: Radiochemical purity (%)=A/B×100%, wherein A refers to a calculated area peak of ^111In-DTPA-hexa-lactoside (Rf=0.0-0.1), and B refers to calculated area of all peaks.
substance,measurement,value
DTPA derivatives of AHA-Asp[DCM-Lys(ah-Lac)3]2 [DTPA-hexa-lactoside],radiochemical purity of 111In after autoclave sterilization,< 90%

# Reference: patent US9040017B2, “Liver-receptor imaging injection, dispensing method and pharmaceutical composition thereof” (INSTITUTE OF NUCLEAR ENERGY RESEARCH ATOMIC ENERGY COUNCIL, …, priority 2010, dated 2015)
